Key:
KaiC = biological target: T1, KaiC (Synechococcus elongatus, UniProt Q79PF4 1-519); assay: fluorescence polarisation
T1 sequence: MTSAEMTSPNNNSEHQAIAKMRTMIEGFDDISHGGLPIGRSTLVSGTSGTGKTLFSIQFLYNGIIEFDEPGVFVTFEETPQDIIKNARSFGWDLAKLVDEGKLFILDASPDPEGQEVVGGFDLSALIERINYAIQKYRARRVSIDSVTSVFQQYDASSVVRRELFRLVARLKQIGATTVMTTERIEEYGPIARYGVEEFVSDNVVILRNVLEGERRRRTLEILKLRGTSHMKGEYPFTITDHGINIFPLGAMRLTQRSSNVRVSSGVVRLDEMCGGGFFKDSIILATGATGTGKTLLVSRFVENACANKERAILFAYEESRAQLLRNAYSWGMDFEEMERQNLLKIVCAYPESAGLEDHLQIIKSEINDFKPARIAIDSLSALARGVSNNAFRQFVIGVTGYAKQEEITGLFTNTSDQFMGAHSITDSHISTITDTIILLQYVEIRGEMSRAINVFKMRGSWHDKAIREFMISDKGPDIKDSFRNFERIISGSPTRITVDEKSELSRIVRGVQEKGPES

SasA (unlabeled) = biological target: T2, SasA (unlabeled) (Synechococcus elongatus, UniProt Q06904 1-387); assay: fluorescence polarisation
T2 sequence: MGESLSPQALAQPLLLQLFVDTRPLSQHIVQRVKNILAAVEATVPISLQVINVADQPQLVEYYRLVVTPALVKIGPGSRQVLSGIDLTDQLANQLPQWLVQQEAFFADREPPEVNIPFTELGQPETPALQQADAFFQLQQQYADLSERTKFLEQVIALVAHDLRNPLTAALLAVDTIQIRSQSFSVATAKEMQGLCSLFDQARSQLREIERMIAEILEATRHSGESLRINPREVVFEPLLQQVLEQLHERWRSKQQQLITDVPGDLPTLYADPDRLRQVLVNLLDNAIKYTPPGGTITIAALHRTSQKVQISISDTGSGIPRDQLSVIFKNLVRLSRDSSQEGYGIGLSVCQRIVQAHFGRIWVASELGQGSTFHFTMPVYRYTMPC

B1: KaiA, fluorescently labeled probe (natural protein)
chain: MLSQIAICIWVESTAILQDCQRALSADRYQLQVCESGEMLLEYAQTHRDQIDCLILVAANPSFRAVVQQLCFEGVVVPAIVVGDRDSEDPDEPAKEQLYHSAELHLGIHQLEQLPYQVDAALAEFLRLAPVETMADHIMLMGANHDPELSSQQRDLAQRLQERLGYLGVYYKRDPDRFLRNLPAYESQKLHQAMQTSYREIVLSYFSPNSNLNQSIDNFVNMAFFADVPVTKVVEIHMELMDEFAKKLRVEGRSEDILLDYRLTLIDVIAHLCEMYRRSIPRET
modifications: fluorescently labeled using sortase-mediated ligation
- binding result (KaiC): binds

B2: SasA, fluorescently labeled probe (enzyme)
chain: MGESLSPQALAQPLLLQLFVDTRPLSQHIVQRVKNILAAVEATVPISLQVINVADQPQLVEYYRLVVTPALVKIGPGSRQVLSGIDLTDQLANQLPQWLVQQEAFFADREPPEVNIPFTELGQPETPALQQADAFFQLQQQYADLSERTKFLEQVIALVAHDLRNPLTAALLAVDTIQIRSQSFSVATAKEMQGLCSLFDQARSQLREIERMIAEILEATRHSGESLRINPREVVFEPLLQQVLEQLHERWRSKQQQLITDVPGDLPTLYADPDRLRQVLVNLLDNAIKYTPPGGTITIAALHRTSQKVQISISDTGSGIPRDQLSVIFKNLVRLSRDSSQEGYGIGLSVCQRIVQAHFGRIWVASELGQGSTFHFTMPVYRYTMPC
modifications: fluorescently labeled using sortase-mediated ligation
- binding result (KaiC): binds

B3: RpaA R121Q mutant (natural protein)
chain: MKPRILVIDDDSAILELVAVNLEMSGYDVRKAEDGIKGQALAVQLVPDLIMLDLMLPRVDGFTVCQRLRRDERTAEIPVLMLTALGQTQDKVEGFNAGADDYLTKPFEVEEMLARVRALLQRTDRIPHAARHSEILSYGPLTLIPERFEAIWFNRTVKLTHLEFELLHCLLQRHGQTVAPSEILKEVWGYDPDDDIETIRVHIRHLRTKLEPDPRHPRYIKTVYGAGYCLELPAETELHQHADQFPSAS
- binding result (SasA (unlabeled)): binds

B4: RpaA, fluorescently labeled probe (natural protein)
chain: MKPRILVIDDDSAILELVAVNLEMSGYDVRKAEDGIKGQALAVQLVPDLIMLDLMLPRVDGFTVCQRLRRDERTAEIPVLMLTALGQTQDKVEGFNAGADDYLTKPFEVEEMLARVRALLRRTDRIPHAARHSEILSYGPLTLIPERFEAIWFNRTVKLTHLEFELLHCLLQRHGQTVAPSEILKEVWGYDPDDDIETIRVHIRHLRTKLEPDPRHPRYIKTVYGAGYCLELPAETELHQHADQFPSAS
modifications: fluorescently labeled using sortase-mediated ligation
- binding result (SasA (unlabeled)): binds

— paper doi:10.1101/2020.06.18.158576 (bioRxiv, 2020)
